Laboratory results taken from patent US6428967 (University of Texas, dated 2002).

Key:
PSD-95 = target: T1, PSD-95 (mouse, UniProt Q62108 1-724); assay: yeast two-hybrid, LexA tail bait against prey
T1 construct: Yeast two-hybrid prey clone; also called postsynaptic density-95; postsynaptic density protein PSD-95
Protocol: (§1) PCR products were subcloned into the EcoRI and NcoI sites of pLexA for the Megalin and VLDL Receptor, and into EcoRI and BarnHI sites for the other receptors. […] All constructs were sequenced after cloning, and all bait vectors were tested for self-activation. Bait and prey vectors were cotransfected into yeast cells (leucine auxotrophic strain EGY48) using the LiAc method as described in the […] manual (CLONTECH). The two-hybrid assay used two reporters (LEU2 and lacZ) under the control of LexA operators. Cells were spread on selective plates (His-;Leu-;Trp-) and grown for 3 days. Single clones were grown on selective plates in patches and harvested after 2–3 days. To recover DNA from yeast, cells were resuspended in 50 μl STES (0.5M NaCl, 0.2M Tris-HCl pH 7.6, 0.01M EDTA, 1% SDS). Glass beads were added and the cells vortexed vigorously. After addition of 20 μl H2O and 60 μl phenol/chloroform cells were vortexed for 1 more minute and centrifuged (14,000×g, 5 min). The aqueous phase was collected and the DNA was precipitated with EtOH. DNA from positive clones was retransformed into DH5α and checked by DNA sequencing. Yeast mating was performed after transformation of LexA plasmids into the yeast strain YM4271 following the instructions in the […] manual (CLONTECH).
(§2) The ApoER2 tail was tested with (+) and without (−) its alternatively spliced insert. For Megalin and for LRP the complete tails and parts thereof containing a single NPxY motif were tested separately.

JIP-1 = target: T2, JIP-1 (mouse, UniProt Q9WVI9 1-707); assay: yeast two-hybrid, LexA tail bait against prey
T2 construct: Yeast two-hybrid prey clone; also called meg11
T2 sequence: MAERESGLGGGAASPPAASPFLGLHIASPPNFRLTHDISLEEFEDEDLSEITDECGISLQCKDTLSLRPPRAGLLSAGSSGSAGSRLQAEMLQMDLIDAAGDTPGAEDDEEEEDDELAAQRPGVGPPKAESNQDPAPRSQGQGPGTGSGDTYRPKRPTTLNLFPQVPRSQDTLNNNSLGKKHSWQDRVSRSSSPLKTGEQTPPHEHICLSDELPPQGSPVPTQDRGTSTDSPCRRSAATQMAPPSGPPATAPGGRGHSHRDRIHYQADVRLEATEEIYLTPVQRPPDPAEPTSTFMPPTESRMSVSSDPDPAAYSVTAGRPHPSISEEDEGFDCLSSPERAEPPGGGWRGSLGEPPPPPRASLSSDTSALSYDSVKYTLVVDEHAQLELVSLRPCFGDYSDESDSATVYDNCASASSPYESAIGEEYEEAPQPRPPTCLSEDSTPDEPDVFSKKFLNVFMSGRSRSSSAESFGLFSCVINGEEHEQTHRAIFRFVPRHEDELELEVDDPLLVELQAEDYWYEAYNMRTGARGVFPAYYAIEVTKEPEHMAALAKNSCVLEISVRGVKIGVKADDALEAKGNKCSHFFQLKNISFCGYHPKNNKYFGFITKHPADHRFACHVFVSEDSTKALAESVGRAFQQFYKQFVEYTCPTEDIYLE
Protocol: as §1, §2

[1] = target: T3, Disabled-1 (Dab1), two-hybrid prey in pB42AD (UniProt P97318-2 1-555); assay: yeast two-hybrid, LexA tail bait against B42AD-Dab1
T3 sequence (looked up): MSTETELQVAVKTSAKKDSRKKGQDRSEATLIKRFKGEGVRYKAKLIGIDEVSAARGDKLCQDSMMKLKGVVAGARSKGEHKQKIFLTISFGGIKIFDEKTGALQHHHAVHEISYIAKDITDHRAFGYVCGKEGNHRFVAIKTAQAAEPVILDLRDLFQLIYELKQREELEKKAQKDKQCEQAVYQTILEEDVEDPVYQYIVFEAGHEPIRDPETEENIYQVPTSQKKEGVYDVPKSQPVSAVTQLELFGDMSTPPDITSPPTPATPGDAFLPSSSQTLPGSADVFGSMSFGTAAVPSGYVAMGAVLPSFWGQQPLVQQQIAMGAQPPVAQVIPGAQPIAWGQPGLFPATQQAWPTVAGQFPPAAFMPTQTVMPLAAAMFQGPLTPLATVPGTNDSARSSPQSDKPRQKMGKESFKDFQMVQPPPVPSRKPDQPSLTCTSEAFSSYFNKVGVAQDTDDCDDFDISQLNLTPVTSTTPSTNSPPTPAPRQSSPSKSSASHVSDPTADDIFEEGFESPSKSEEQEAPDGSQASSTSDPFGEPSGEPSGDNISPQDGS
Protocol: as §1, with “All LDL receptor family cytoplasmic tail LexA fusion proteins were constructed using the pLexA vector ([…] system, CLONTECH). […] PCR” for “PCR”
as §2

T1 sequence (Q62108 whole entry): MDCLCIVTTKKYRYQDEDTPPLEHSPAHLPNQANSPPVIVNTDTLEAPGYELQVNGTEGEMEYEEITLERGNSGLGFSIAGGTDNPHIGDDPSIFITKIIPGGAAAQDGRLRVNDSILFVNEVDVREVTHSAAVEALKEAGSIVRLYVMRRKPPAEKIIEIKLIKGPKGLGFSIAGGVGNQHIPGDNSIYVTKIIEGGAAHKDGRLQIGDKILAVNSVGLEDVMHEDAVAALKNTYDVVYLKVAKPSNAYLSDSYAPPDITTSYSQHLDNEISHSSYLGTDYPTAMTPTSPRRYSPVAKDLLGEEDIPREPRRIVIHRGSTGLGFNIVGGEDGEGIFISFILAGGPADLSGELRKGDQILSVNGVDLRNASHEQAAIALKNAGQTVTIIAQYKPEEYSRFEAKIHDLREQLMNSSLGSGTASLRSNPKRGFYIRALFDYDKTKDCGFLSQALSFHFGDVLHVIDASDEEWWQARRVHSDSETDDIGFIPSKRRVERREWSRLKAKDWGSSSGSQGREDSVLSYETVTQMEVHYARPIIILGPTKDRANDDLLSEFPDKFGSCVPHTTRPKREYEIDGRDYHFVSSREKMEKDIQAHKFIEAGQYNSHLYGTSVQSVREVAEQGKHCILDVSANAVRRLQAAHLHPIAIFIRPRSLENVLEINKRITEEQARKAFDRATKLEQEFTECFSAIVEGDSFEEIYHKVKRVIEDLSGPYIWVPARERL

B1: ApoER2 cytoplasmic tail with its alternatively spliced insert, LexA fusion protein (ApoER2+ mouse) (receptor, not shown: large carriers)
chain: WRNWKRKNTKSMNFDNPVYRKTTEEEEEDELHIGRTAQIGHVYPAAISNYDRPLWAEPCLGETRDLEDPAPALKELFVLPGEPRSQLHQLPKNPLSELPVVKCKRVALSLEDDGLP
notes: LexA fusion bait of the two-hybrid assay; also called the ApoER2 tail containing the alternatively spliced insert
Does B1 bind (PSD-95)?
Result: binds

B2: ApoER2 cytoplasmic tail without its alternatively spliced insert, LexA fusion protein (ApoER2- mouse) (receptor, not shown: large carriers)
chain: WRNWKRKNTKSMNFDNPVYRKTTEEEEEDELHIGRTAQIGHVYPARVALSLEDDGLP
notes: LexA fusion bait of the two-hybrid assay; also called the tail without this insert
Does B2 bind (PSD-95)?
Result: no binding

Does B2 bind (JIP-1)?
Result: no binding

B3: LRPA, part of the LRP cytoplasmic tail, LexA fusion protein (LRPA human) (receptor, not shown: large carriers)
chain: VQGAKGFQHQRMTNGAMNVEIGNPTYKMYEGGEPDDVG
notes: LexA fusion bait of the two-hybrid assay
Does B3 bind [1]?
Result: no binding

B4: MegB, part of the Megalin cytoplasmic tail, LexA fusion protein (MegB human) (receptor, not shown: small tags and cut ends)
chain: SARDSAVKVVQPIQVTVSENVDNKNYGSPINPSEIVPETNPTSPAADGTQVTKWNLFKRKSKQTTNFE
notes: WARNING: the listing's entry 129 (76 residues) begins like the LRP entries 130 and 132, while entry 131 (68 residues) is a stretch of the Megalin entry 127; entries 129 and 131 look exchanged, so MegB is probably entry 131
Does B4 bind [1]?
Result: no binding

B5: MegC, part of the Megalin cytoplasmic tail, LexA fusion protein (MegC human) (receptor, not shown: large carriers)
chain: GSPINPSEIVPETNPTSPAADGTQVTKWNLFKRKSKQTTNFENPIYAQMENEQKESVAATPPPSPSLPAKPKPPSRRDPTPTYSATEDTFKDTANLVKEDSEV
notes: as for B3
Does B5 bind [1]?
Result: no binding
